Assay [1] has as its target Recombinant extracellular domain of human RON (rhRON) (human, UniProt Q04912).
The target in assay [2] is full-length human RON expressed on HEK293T cells (HEK293T-hRON) (Homo sapiens, UniProt Q04912).
full-length human RON expressed on HEK293T cells (HEK293T-hRON), sequence (Q04912 25-1400): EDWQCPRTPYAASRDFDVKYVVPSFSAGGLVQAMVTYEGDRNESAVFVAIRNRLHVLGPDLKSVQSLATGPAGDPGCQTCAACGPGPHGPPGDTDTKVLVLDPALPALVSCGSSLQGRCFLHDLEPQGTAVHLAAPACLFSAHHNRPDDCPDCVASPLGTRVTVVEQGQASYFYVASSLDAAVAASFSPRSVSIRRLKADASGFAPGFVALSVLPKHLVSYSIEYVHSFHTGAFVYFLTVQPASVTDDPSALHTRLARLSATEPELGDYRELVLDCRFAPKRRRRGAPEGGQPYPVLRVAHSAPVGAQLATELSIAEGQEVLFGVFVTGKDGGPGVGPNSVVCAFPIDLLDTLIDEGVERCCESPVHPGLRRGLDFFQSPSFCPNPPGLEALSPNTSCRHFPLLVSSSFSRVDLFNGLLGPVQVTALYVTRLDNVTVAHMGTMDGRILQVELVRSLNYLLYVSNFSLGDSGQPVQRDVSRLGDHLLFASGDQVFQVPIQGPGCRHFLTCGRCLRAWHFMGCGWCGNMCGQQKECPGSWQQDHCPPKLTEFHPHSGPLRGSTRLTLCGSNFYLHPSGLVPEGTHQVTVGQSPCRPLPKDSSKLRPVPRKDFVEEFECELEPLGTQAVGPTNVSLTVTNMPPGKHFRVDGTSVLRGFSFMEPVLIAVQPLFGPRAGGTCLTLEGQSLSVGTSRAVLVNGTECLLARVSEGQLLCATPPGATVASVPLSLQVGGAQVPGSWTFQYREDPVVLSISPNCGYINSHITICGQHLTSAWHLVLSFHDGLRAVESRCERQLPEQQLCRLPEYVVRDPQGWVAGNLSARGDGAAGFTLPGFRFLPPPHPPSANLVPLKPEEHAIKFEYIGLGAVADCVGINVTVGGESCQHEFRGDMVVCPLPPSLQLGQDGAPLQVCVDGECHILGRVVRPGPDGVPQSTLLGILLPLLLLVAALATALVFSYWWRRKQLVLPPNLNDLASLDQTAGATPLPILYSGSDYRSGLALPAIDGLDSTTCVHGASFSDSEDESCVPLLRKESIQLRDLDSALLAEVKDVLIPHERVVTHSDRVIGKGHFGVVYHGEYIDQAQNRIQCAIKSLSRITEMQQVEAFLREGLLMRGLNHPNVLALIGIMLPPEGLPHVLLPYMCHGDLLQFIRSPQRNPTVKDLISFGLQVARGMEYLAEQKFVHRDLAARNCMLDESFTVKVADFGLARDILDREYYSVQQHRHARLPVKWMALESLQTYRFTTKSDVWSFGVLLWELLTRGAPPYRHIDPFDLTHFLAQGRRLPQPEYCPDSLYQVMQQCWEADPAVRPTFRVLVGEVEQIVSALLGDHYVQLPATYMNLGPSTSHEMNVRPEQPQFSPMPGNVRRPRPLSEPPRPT

Recombinant extracellular domain of human RON (rhRON), sequence (Q04912 25-957): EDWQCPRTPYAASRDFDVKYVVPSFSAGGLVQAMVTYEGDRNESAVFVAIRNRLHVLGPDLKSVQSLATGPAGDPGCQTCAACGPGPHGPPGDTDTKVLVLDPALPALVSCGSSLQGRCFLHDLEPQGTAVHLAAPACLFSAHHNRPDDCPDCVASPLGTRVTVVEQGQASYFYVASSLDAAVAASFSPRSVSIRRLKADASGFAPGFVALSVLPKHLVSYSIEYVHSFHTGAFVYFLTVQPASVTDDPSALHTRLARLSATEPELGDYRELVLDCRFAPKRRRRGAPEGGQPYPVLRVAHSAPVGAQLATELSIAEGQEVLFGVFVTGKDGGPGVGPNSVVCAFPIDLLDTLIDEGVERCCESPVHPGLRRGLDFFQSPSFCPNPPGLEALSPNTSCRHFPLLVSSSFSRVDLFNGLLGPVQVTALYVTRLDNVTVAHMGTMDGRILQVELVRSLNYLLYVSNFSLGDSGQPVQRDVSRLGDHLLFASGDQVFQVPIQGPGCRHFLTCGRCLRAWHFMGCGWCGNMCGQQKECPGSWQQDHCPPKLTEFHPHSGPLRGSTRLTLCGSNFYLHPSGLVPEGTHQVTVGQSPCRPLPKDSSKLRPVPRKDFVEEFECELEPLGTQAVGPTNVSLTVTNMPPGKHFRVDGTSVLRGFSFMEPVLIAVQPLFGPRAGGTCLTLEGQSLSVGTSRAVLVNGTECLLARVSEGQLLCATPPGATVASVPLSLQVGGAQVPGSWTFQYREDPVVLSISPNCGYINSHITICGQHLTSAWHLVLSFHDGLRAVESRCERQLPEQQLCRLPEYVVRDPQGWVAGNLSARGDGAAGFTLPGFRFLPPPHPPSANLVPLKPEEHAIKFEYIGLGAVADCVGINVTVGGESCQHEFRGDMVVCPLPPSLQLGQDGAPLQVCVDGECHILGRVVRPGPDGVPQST

B1: KY704043 (VHH)
VHH: EVQLVESGGGLVQAGGSLRLSCVASGRAYRNYVMGWFRQGPGKEREFVATIRPDDGSILSSNSVRGRITISSDNAKNTVYLQMSTLAPEDTAIYYCAYGTTPSMLARKYDYWGQGTLVTVSS
As to B1, the binding result in assay [1] and in assay [2] was “binds” each time.

B2: 11F03 (VHH)
VHH: EVQLVESGGGLVQAGGSLRLSCVVSGIYFRLYTMNWYRQALGKQREYVAMITNDGSTNYGASIKGRFTISRDNAKNTVYLQMNNLNPEDTAVYYCNAHDYWGQGTQVTVSS
Turning to B2, the binding result in assay [1] and in assay [2] was “binds” in each case.

B3: 11G06 (VHH)
VHH: EVQLVESGGGLVQPGGSLRLSCAASGSIFSVNAMGWYRQAPGKQRELVASMVSGRSPAYADSVKGRFTISRDNAENTVYLQMNSLKPEDTAVYYCNIKGEYYSRSQYNVWGQGTQVTVSS
As for B3, the binding result in assay [1] and in assay [2] was “binds” each time.

B4: KY704038 (VHH)
VHH: EVQLVESGGGLVQAGGSLRLSCASSGIAFRLRTMDWYRQAPGNQREWVATITSDYSTDYADSVKGRFTISRDNAQNTVYLQMNSLKPEDTAVYYCHAGGVVWGQGTLVTVSS
Turning to B4, the binding result in assay [1] and in assay [2] was “binds” each time.

B5: KY704041 (VHH)
VHH: EVQLVESGGGLVQAGGSLRLSCAASGRAFSSYAMGWFRQAPGKEREFVAVISGRGGVTYYAASVKGRFTISRDNAKNTVLLQMSSLKPEDTGVYYCAAGPNIGVLTDPAYSGGDWGQGTLVTVSS
Take B5: the binding result in assay [1] and in assay [2] was “binds” throughout.

B6: 11G10 (VHH)
VHH: EVQLVESGGGSVQAGGSLRLSCAASGRVAMGWFRQAPGKEREFVAAISASGGSSSYADSVKGRFTISRDSAKSTVYLQMNSLEPEDTAVYYCAARARTLGWVSADVSAYDYWGQGTQVTVSS
With B6, the binding result in assay [1] and in assay [2] was “binds” each time.

B7: 11D08 (VHH)
VHH: EVQLVESGGGLVQPGGSLRLSCAASGFTFSSYWMYWVRQAPGKGLEWVSAISPASGSVDYIDSVKGRFTISRDNAQNTLYLRMNSLKSEDTAIYYCAKDSRRLIRSNYETFGLGTQVTVSS
For the molecule B7, the binding result in assay [1] and in assay [2] was “binds” throughout.

B8: KY704042 (VHH)
VHH: EVQLVESGGGLVQAGGSLRLSCAASGRSFGSYHMGWFRQALGKEREFVAAISSGGGLLDYEDSVKGRFTISRDNAKNTVYLQMNSLTPEDTAVYYCAATARVWGSWFTSDYDYWGQGTLVTVSS
For B8, the binding result in assay [1] and in assay [2] was “binds” in each case.

B9: 11B09 (VHH)
VHH: EVQLVESGGGLVQAGGSLRLSCAASGRTFSNYAMGWFRQAPGKERDFVAAIDWSGDSISYENTVKGRFTISRDNAKNTMYLQMNSLKPEDTAVYFCATRSVGGISTLRRRYDYWGQGTLVTVSS
For B9, the binding result in assay [1] and in assay [2] was “binds” throughout.

B10: 11G07 (VHH)
VHH: EVQLVESGGGLVQAGGSLRLSCAASGRSFSGDTMGWFLQAPGKEREFVAGINWSSRSTNYADSVKGRFTISRDNAKNTVYLQMNTLKPEDTAVYYCAAGPPSPYIYSRPDLYTYWGQGTQVTVSS
Regarding B10, the binding result in assay [1] and in assay [2] was “binds” in each case.

B11: KY704039 (VHH)
VHH: EVQLVESGGGLVQAGGSLRLTCAASGNFFNIITMGWFRQAPGKERELVAVDTAGRSISYLDSVKGRFTIVRDNAKNTVILEMNSLTPEDTAVYYCYATGHRSVTGGIYVTWGQGTLVTVSS
On to B11, for which the binding result in assay [1] and in assay [2] was “binds” throughout.
